Test: yeast display, Sf9 membrane polyspecificity reagent, FACS + sequencing; frameworks hold sequencing errors
Procedure, shortened: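 Galactose induction of a Saccharomyces cerevisiae BJ5465 synthetic nanobody display library ran 36–48 hours. The cells were then stained for 1 hour at 4 °C with 10% biotinylated, detergent-solubilized Sf9 membrane reagent, pulled down on streptavidin microbeads and FACS-sorted into low and high (top ~1%) gates on expression and reagent-binding fluorescence. Labels for polyreactivity follow the gate of origin.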

Sequence	polyreactivity (PSR sort gate)
QVQLVESGGGLVQAGGSHRLSCAASRRIFGYNAMGWYRKAPGKERELVAAIRYSGGRTYYADSVKGRFTISRDNAKNTVYLQMNSLKPEDTAVYYCAATAFDKLKVWYYYWGQGTQVTVSS	high polyreactivity
QVQLVESGGGLVQAGGSHRLSCAAYGYTIPFYTMGWYRQAPGKERDLVAAINSGGSTYYADSVKGRFTISRDNAKNTVYLQMNTLKPEDTAVYYCAVEGGFRVRYQAQYRYYYWGQGTQVIVSS	high polyreactivity
QVQLVESGGGLVQAGGSHRLSCASSGIIFAWYVMGWSRQAPGKDSELVAAITQSGGSTFYADSVKGRFTISRDNAKNTVYLQMNSLKPEDTEVYYCNTEDFFNVPEMDSWGQGTQVTVSS	low polyreactivity
QVQLVESGGGLVQAGGSHRLSCSGSGFSLTLNAMGWYRQAPGKERELVAAISGNGGRTYYADSVKGRFTISRDNAKNTVYLQMNSLKPEDTAVYYCAARYTRTPSDCSTRKFGYGYWGQRTQVTVSS	high polyreactivity
QVQLVESGGGLVQAGGSILLICSASGGNFYVYSMGWYRQAPGKERELVAAIRYSGGSTCYADSVKGRFTISRDNAKNTVYLLMNSLKTEYTAVYYCATVGWPFYPARDYDYSGQGTQVTVSS	low polyreactivity
QVQLVESGGGLVQAGGSILLSCAASGSIYGTNTMGWYRQAPGKEREFVAVITGSTTSTYYADSVKGLFTISRDNAKNTVYLQMNSLKPEDTAVYYCATDYWWDLFEYDYWGQGTQVTVSS	high polyreactivity
QVQLVESGGGLVQAGGSIRISCAPSGRTFNYYAIGWNRPAPAQEREFVAAITKSCGSTYYADSVKGRFTISRDNAKYTVYLQMNSVKPEDTAVYYCATTHRYRVVYWRQGTQVTVSS	high polyreactivity
QVQLVESGGGLVQAGGSIRISCEASGITFGRNPMGCDRQAPGKERELVDAIDSGGNTYADSVKGRFTISRDNAKNTFYLQMNRLIPEDTAVYYCAVDGGEFSSYGYWGQGTQVTVSS	low polyreactivity
QVQLVESGGGLVQAGGSIRLICAASGFIISWYAMGWYRQAPGKERELFAAISSGGSTTYADSVKGRFTISRDNAKNTVYLQMNSLKPEDTAVYYCNADQVYGYNYWGQGTQVTVSS	high polyreactivity
QVQLVESGGGLVQAGGSIRLICAASGRNYAVYAMGWYRQAPGKERELVAAITYGGGRTYYADSVKGRFTISRDNEKNTVYLKLNSMNPEDTAVYFCAADYFGTDYDYWGQGTHVTVSS	low polyreactivity
QVQLVESGGGLVQAGGSIRLICAASGRTFSRYAMGWYRQAPGKERELVAAITFRFGRTYYADSVKGRFTISRDNAKNTVYLQMNSMKPEDTSVYYCAAETKYSGAYPYDYWGQGTQVPVSS	high polyreactivity
QVQLVESGGGLVQAGGSIRLSCAASGFTFTRYTMGWYRQAPGKERELVARITRSGGSTYYADSVKGRFTISRDNAKNTVYLQMNSLKPEDTAVYDCAAGYVVATRYDYWGQGTQVTLSS	high polyreactivity
QVQLVESGGGLVQAGGSIRLSCAASGRIFRYYHMGWYRQAPGKERELVARISSTGRTYADSVKGRFTISRDNAKNSVYLQMYSLKPEDTAVYFCAALFHTRGHSKYDYWGQGTQVTVSS	high polyreactivity
QVQLVESGGGLVQAGGSIRLSCAASGRISAPNAMGWYRQAAVKERELVAAISSGGRTNYADSVKGRFTISRDNEKNTVYLQMNSLKPEDTAVYYCAAYYYNDRMYYWGQGNQVTVSS	high polyreactivity
QVQLVESGGGLVQAGGSIRLSCAASGRTAKRYAMGWYRQAPGKERELVAAISRGGGSTYYADSVKGRFTISRDNAKNTVYLQMNSLKPEDTAVYYCAADLNSYTRYDYWGQGTQVTVSS	high polyreactivity
QVQLVESGGGLVQAGGSIRLSCAASGRTFGDYAMGWYRQAPGKERELVAAISSSGGRTYYADSVKGRFTISRDNAKNTVYLQMNSLKPEDTAVYYCAAQSKYYQYYSWGQGTQVTVSS	high polyreactivity
QVQLVESGGGLVQAGGSIRLSCAASGRTFVPYVMGWYIQAPGKERELVATINWSGGSTYYADSVKGRFSISRDNAKNTVYLQMNSLKPEDTADYYCDARYYSDWFYYLFRYDYWGQGTQVTVSS	low polyreactivity
QVQLVESGGGLVQAGGSIRLSCAASGSIFSWYAMGWYSQAPGKERELVAAITSDGGTNYADSVKGRFTISRDNAMNTVYLQMNTLKPEDTAVYYCAADYWYSWRRSHYAHRYGYWGQGTQVTVSS	low polyreactivity
QVQLVESGGGLVQAGGSIRLSCAASGSIVVSYAMGWYRQAPGKERELVAAITVSGGSTYYADSVKGRFTISRDNAKNTVYLQMNSLKPEDTAVYYCAADSWDDWVVEFYYWGQGTQVNVSS	low polyreactivity
QVQLVESGGGLVQAGGSIRLSCAASGSTFANYAMGWYRQAPGKERELVAAISWSGSYTYYADSVKGSFTISRDNAKNTVYLQMNSLKPEDTAVYYCAADYDTPTWEYYYWGQGTQVTVSS	low polyreactivity
QVQLVESGGGLVQAGGSIRLSCAASGSTFWPYAMGWYRQAPGKERELVAAITTSGGITYYADSVKGRFTISRDKAKITVYLQMNSVKPEDTAVYYCAADLSYHGYGYWGQGTQVTVSS	low polyreactivity
QVQLVESGGGLVQAGGSIRLSCAASGSTFYIYAMGWYRQAPGQERELVATISWSGGSTYYADSVKGRFTISRDNAKNTVYLQMNSLKPEDTAVYYCAVRPGFGRSLWYGYWGQGTQVTVSS	high polyreactivity

Sequence	polyreactivity (PSR sort gate)
QVQLVESGGGLVQAGGSIRLSCAASGSTLQGNAMGWYRQAPGKERELDAAISRSGGSTYADSVKGRFTISRDNAKNTVYLLMNSLKPEDTAVYYCAAYSGVGYLWFVYWGQGTQVTVSS	low polyreactivity
QVQLVESGGGLVQAGGSIRLSCAASRFTFGPYAMGWYRQAHVKERELVAAITIRGGSPYADSVKGRFTISRDNAKNTVYLQMNSLKPEDTAVYYCATVRALEYNYWGQGTQVTVSS	low polyreactivity
QVQLVESGGGLVQAGGSIRLSCAASVSTFFVYTMGWYRQATGKGMELVAAISGSGGSTAYADSVKGRFTISRDNAKNTVYLQLNSLKPEDTAVYYCAARRHVYLRGSTFEFNYWGQGTQVTVSS	high polyreactivity
QVQLVESGGGLVQAGGSIRLTCAASGRIFYGNAMGCYRQAPGKERELVAAISSGTSTNYADSVKGRFTISRDNAKTTVYLQMNSLKPEDTAVYYCAAGSYSRYLYSLYFDFDYWGQGTQVTVSS	low polyreactivity
QVQLVESGGGLVQAGGSIRLTCAASGSIFYHYAMGWYRQAPAKERELVADITQSGGTTDYADSVKGRFTISRDNAKNTVYLQMNSLKTEDTAVYYCAADGDTTSPTYYIFWYGEFDYCGQGTQVTVSS	low polyreactivity
QVQLVESGGGLVQAGGSIRLTSAASGRTFVTHPMGWYRQAPGKDRELVAAISRSGSSTYYADSVKGRFTISRDNAKNSVYLQMNSLKAADTAVYYFARVRSRATEVVEYDYWGQGTQVTVSS	high polyreactivity
QVQLVESGGGLVQAGGSLCLSCAASGIFVYNAMGWYRPAPGKEREFVAAINKSGASTFYADSVKGRFTISRDTAKNTVYLQMNSLKPEDTAVYYCRERDYWGQGTQVTVSS	low polyreactivity
QVQLVESGGGLVQAGGSLGLSCAASGIIFQANAMGWYRQAPGKERELVAGISRGSSTNYADSVKGRFTISRDNEKNTVYLQMNILKPEDTAVYYCASDRGYGRISRNYYWGQGTQVTVSS	low polyreactivity
QVQLVESGGGLVQAGGSLGLSCAASGLIFRKYAMGWYRQAPGKERELVATINRSGGSTYYADSVKGRFTISRDNAKNTVYLQMNSLKPEATAVYYCATDRLSYGYKPGYTFYYWEQGTQVTVSS	high polyreactivity
QVQLVESGGGLVQAGGSLGLSCAASGYSLGSYAMGWYRQAPGKERELVAAITSSGGSTYYADSVKGRFTSSRDYAKNTDYLQMNSLKPEDTAVYYCAAERGYHGGGSGLYDYWGQGTQVTVSS	low polyreactivity
QVQLVESGGGLVQAGGSLGLSSAASGRTFGVYAMGWYRQAPGKERELVAGIRWRGGSTYYADSVKGRFTISRDNAKNTVYLQMNSLKPEDTAVYYCAADVYLVKYDYWGQGTQVTVSS	low polyreactivity
QVQLVESGGGLVQAGGSLGLSWAASGSIIRYNALGWYRQAPGKERELVAAITKGAGSTYYADSEKGRFTISRDNAKNTVYLHMNSLKPEDTEVYYCNKARGSGHTYYSWGQGTQVTVSS	high polyreactivity
QVQLVESGGGLVQAGGSLLISCAASGITFDGYAMGWYRHAPGKESELVARITATGFRTYYADSVKGRFTISRDYAKNTVYLKMNSLKPEDTAVYYCPRTTSCVQNVRKYYYWGQGTQVTVSS	high polyreactivity
QVQLVESGGGLVQAGGSLLLSCAASGFTFGSYAMGLYRQAPGKERELVARITRGGNTYYADSVKGRFTISRDNAKNTVYLQMNSLKPVDTAVYYCNAYGRVSPLYQPYGNDAQGYYWGQGTQVTVSS	high polyreactivity
QVQLVESGGGLVQAGGSLLLSCAASGGTFHYNAMGWYIQAPGKERELVAAITESGGRTYYADSVKGRFTISRDNAKNTVYLQMNSLKPEDTAVYYCNADQDSDAADRSAYWGQGSQVTVSS	low polyreactivity
QVQLVESGGGLVQAGGSLLLSCAASGLIFYWYAMGWYRQAPGKERELVAAISGGDRTKYADSVKGRFTISRDNAKNTVYLQMISLKPEDSAVYYCATAPYDTSRRYGPYEYWGQRTQVTVSS	low polyreactivity
QVQLVESGGGLVQAGGSLLLSCAASGNIIYSNALGWYRQGPGKERELVAAISSGGITYYADSVKGRFTISRDNAKNTVYLQMNSLKPEDTAVYYCAAYIRNWRATYEYWGQGTQVTVSS	high polyreactivity
QVQLVESGGGLVQAGGSLLLSCAASGRIFDRNAIGWYRQAPGKERELVAAINSVGTTYYADSVKGRFTISRDNAKNTVYLQMNSLKPEDTAVYYCAARSAYRRGYWGQGTQVTLSS	high polyreactivity
QVQLVESGGGLVQAGGSLLLSCAASGRIFFTNAMGWYRQAPRKERELVAAISKSGARTYYADSVKGRFTISRDKAKNTVYLQMNSLKPEDTAVYYCATDYAFPQYDDWGQGTQVTVSS	high polyreactivity
QVQLVESGGGLVQAGGSLLLSCAASGRTFNYIAMGWYRQAPGKERELVAAISQGGGSTYYADSVKGRFTISRDNAKNTVYLQMNSLKPEVTAVSYFAADTWWYGKYDYWGQGTQVTVSS	low polyreactivity
QVQLVESGGGLVQAGGSLLLSCAASGSIFGGNAMGWSRQAPGKVRELVAAITSSGGSTYYADSVKGRFTISRDNAKNTVYLQMNSLKPEDTAVYYCNKLSWRKYLGYEYWGQGTQVTVSS	high polyreactivity
